Reference: patent US20150258217A1, “Methods of Synthesizing and Using Peg-Like Fluorochromes” (THE GENERAL HOSPITAL CORPORATION, priority 2012, published 2015)

What was measured:
[1] = Quantum yield determination; format: physicochemical; settings: for Quantum Yield: Table 3B, IR-783 dipeptides; for Quant. Yield: Table 5, in PBS
Experimental: Quantum yields were determined as described in Demas et al., “Measurement of photoluminescence quantum yields. Review”, Journal of Physical Chemistry 75, 991-1024 (1971), and Shao et al., “Facile Synthesis of Monofunctional Pentamethine Carbocyanine Fluorophores. Dyes and pigments: an international journal 90, 119-122 (2011). For IR-783 a reference quantum yield of 0.043 was used (see Li et al., “Synthesis and characterization of glucosamine-bound near-infrared probes for optical imaging”, Organic letters 8, 3623-3626, 2006); for fluorescein a reference quantum yield was […] (see Sjoback et al., “Absorption and florescence properties of fluorescein”, Spectrohimica Acta Part A 51, L7-L21, 1995). For Cy3 a reference quantum yield of 0.31 was used (Luminprobe Inc). For PN(783)'s, excitation was at 730 nm and emission spectra were recorded from 765 nm to 870 nm in PBS and maximum emission used. For PN(545)'s, excitation was at 515 nm and emission spectra were recorded from 538 nm to 700 nm in PBS and maximum emission used. For PN(497)'s, excitation was at 450 nm and emission spectra were recorded from 475 nm to 620 nm in PBS and maximum emission used. Absorbance of each probe was adjusted less than 0.1. Measurements were made in triplicate and are expressed as mean±SD.

[2] = PN and peptide size (volume, diameter) by FPLC gel filtration (Superdex 200, globular protein standards); format: physicochemical; settings: for Molecular Volume FPLC: Table 3B, dipeptides; for Volume FPLC (diameter) / Volume FPLC: Table 5; for Volume FPLC (diameter): converted from globular protein equivalent MW; for Volume FPLC: globular protein equivalent molecular weight
Experimental: DOTA-Lys-Cys(IR783)-NH2 is then dissolved in DMSO, with 2 equivalents of an NHS ester of PEG and 6 equivalents of DIPEA. The reaction was at room temperature for 5 days. Product was purified by reverse phase HPLC separation. Product molecular weight was by matrix-assisted laser desorption ionization time-of-flight mass spectrometry (MALDI-TOF MS), with product molecular volume by size exclusion FPLC using globular protein standards (GE Healthcare life science AKTApurifier 10).
The mass spec of low molecular weights (MW) were obtained by MS-ESI Micromass (Waters) and high MW molecules were determined through MALDI-TOF analyses at the Tufts University Core Facility. RP-HPLC (Varian ProStar detector and delivery modules) employed an eluant A (0.1% TFA/water) and eluant B (0.1% TFA and 9.9% water in acetonitrile). Probe size (volume) was determined by FPLC using an ÄKTA Purifier 10 and Superdex™ 200 10/300GL column (GE Healthcare) with a running buffer of 0.05 M sodium phosphate, 0.15 M NaCl (0.1% Tween, pH 7.2) and flow rate of 0.8 ml/min. Standards (GE Healthcare) were Ferritin, Ribonuclease A, Carbonic Anhydrase, and Conalbumin and Blue Dextran 2000. To obtain probe volumes, Mr (apparent molecular weight based on size exclusion retention) was plotted versus Kav. Kav=(Ve−Vo)/(Vt−Vo), Vt=total volume, Ve=elution volume, Vo=void volume.
The column was calibrated with globular protein standards, and globular protein equivalent molecular weights (in kDa) were obtained (Table 5, column 5). These were converted to PN diameters in nm using the relationship: Radius in nm=[…] where M is the molecular weight of a globular protein expressed in daltons (see Erickson, “Size and Shape of Protein Molecules at the Nanometer Level Determined by Sedimentation, Gel Filtration, and Electron Microscopy”, Biological Procedures Online 2009, 11(1): 32-50). PN's diameters ranged from 3.0 to 11.8 nm (see FIG. 23a). Using PEG's of 5 kDa and 30 kDa, selected for their low polydispersity, PN's were synthesized using IR-783, Cy3 and Fluorescein (see FIG. 22a) and their sizes determined (see FIGS. 23a, 23b, 23c). With the 5 kDa PEG and these three fluorochromes (see the magenta chromatograms in FIGS. 22a, 23b and 23c) PN diameters were 4.3 nm. With the 30 kDa PEG and these three fluorochromes (blue chromatograms, 23a, 23b, 23c), PN diameters were now 10.0 nm. For reference, the diameter of a 67 kDa albumin determined by this method was 5.4 nm.

[3] = Circulating form of PN's (FPLC of serum after IV injection); format: in vivo, mouse; settings: nude mice, 20 nmoles
Experimental: 20 nmoles of PN(783)4.3, PN(783)6.1, or PN(783)10.0 was injected (IV, tail vein) into nude mice (female; 25-30 g; 6-8 weeks old; nu/nu). At the indicated time, 50 μl of blood was collected with microhematocrit capillary tube (Fisher Scientific) from the tail, and transferred to Eppendorf microcentrifuge tube with anticoagulant (EDTA) coating (Fisher Scientific). Tubes were centrifuged (5000 rpm for 5 minutes), and the supernatant was injected to the FPLC, a ÄKTA Purifier 10 with Superdex™ 200 10/300GL column.

[4] = test system: HT-29, a human colon carcinoma cell line; assay: PN and peptide binding to cells (non-specific binding, FACS); format: cell-based; settings: HT-29 cells, 30 min at 37° C., FACS
Experimental: HT-29, a human colon carcinoma cell line, was from the American Tissue Culture Collection and maintained according to their instructions. Cells were seeded on 24-well plates at 5×10^5 cells/well in culture medium (RPMI 1640 with 10% FBS) the day before the assay. The day of assay, medium was removed, wells rinsed twice with DPBS (+Ca, +Mg), and 100 μl of 2% FBS/DPBS (+Ca, +Mg) added. 100 μL of Nanoprobes (2 μM) in DPBS (+Ca, +Mg) was added to cells and incubated for 30 min at 37° C. (Probe concentrations were determined spectrophotometrically (783 nm, extinction coefficient of 314 471 cm^−1 M^−1 for IR-783; 497 nm, extinction coefficient of 68 000 cm^−1 M^−1 for Fluorescein; 545 nm, extinction coefficient of 150 000 cm^−1 M^−1 for Cy3). Cells were detached by Trypsin/EDTA and assayed for fluorescence by FACS (BD 7 laser LSR2 for nanoprobes with IR-783; BD 3 laser LSR2 for nanoprobes with Fluorescein or Cy3).

[5] = Blood half-life from serum fluorescence after tail injection; format: in vivo; settings: mouse, IV; single decay constant fit
Experimental: Using these procedures and PEG's of different molecular weights, PEG-like NIR fluorochromes of different molecular weights, volumes and pharmacokinetics were synthesized, with results summarized in Table 3B. Blood half-lives were determined by tail injection into mice and measuring serum fluorescence as a function of time. Data (fluorescence versus time) were fit to a single decay constant equation to yield blood half-lives. Human pharmacokinetics will be far slower than that of mice.

HT-29 tumor = format: in vivo, mouse
Description: A Kodak FX multispectral imaging system was used (Carestream Molecular Imaging, Rochester, N.Y.). Excitation at multiple wavelengths (620, 650, 690, 710, 720, 730, 750 and 760 nm) with the emission at 830 nm was setup for IR-783 spectrum; Excitation at multiple wavelengths (420, 440, 460, 480, 510, 520, 530, and 540 nm) with the emission at 600 nm was setup for Cy3 spectrum; Excitation at multiple wavelengths (450, 470, 510, 520, 530, 540, 550, 570, and 590 nm) with the emission at 700 nm was setup for mCherry; with manufacturer's software to separate (unmix) the IR-783 spectrum, Cy3 spectrum, or mCherry spectrum from skin autofluorescence and chlorophyll fluorescence from food. X-ray images were taken after fluorescence images. Animals were anesthetized with 2% isoflurane with O2 flow (2 I/min) during imaging.
Female nude mice (25-30 g; 6-8 weeks old; nu/nu) were anesthetized with 2% isoflurane/O2. HT-29 or mCherry-HT-29 cells were detached, pelleted and 200 μl of cell suspension containing 10^6 cells in Matrigel (BD Bioscience) was injected subcutaneously into right and left shoulders. Tumors were allowed to grow 5-7 days before experiments.
The imaging was performed by Triumph II multimodality imaging system (Gamma Medica Ideas, LLC) comprising XSPECT with four CZT (Cadmium Zink Telluride) detectors and X-O CT with CMOS detector. SPECT data of the ^111In-labeled compound was acquired for 60 minutes using 5-pinhole collimators and processed with 3D-OSEM algorithm using 4 subsets and 5 iterations. 3-dimensional CT data was processed with modified Feldkamp software. […] Animals were under isoflurane anesthesia (1.5%) with O2 flow (1.5 l/min) and kept warm during the imaging with a heated animal bed.
150 μl of ^111In-labeled PN(783)10 (400 μCi, ˜2 nmole) were injected to tumor-bearing animals by tail vein (IV). 24 hours or 48 hours later, animals were sacrificed, and tumors, blood, liver, spleen, stomach, kidneys, small intestine, lung, heart, tail, fat, and muscle, were collected. Radioactivity was measured with Perkin Elmer, Wizard2 2480 gamma counter.

[6] = mouse, in vivo
Experimental: At two hours post injection, agent is in the blood and interstitium. By 24 hours post injection, tumors are becoming apparent as agent is being cleared. At 48 hours, labeling is highly tumor selective. […] By surface fluorescence, as with SPECT, labeling is highly tumor selective at 48 hours. Biodistribution as organ radioactivity concentrations FIG. 26(c) and total organ radioactivity FIG. 26(d) were obtained by dissection and ^111In counting at 24 hours and 48 hours post injection. Even at 48 hours post injection some 7.5% of injected dose is in the blood, with less than 5% in liver, even though the diameter of PN(783)10.0 exceeds that of albumin (6.7 nm). Data are means and standard deviations. […] By 72 hours, some 17% of injected dose was retained, approximately half of which was still in the blood based on FIG. 26d.

## (DOTA)Lys(PEG10K)-Cys(IR-783) [PN(783)6.1]
[1]
  Quantum Yield: 0.17
  Quant. Yield: 0.16
[2]
  Molecular Volume FPLC: 100.7 kDa
  Volume FPLC (diameter): 6.1 nm
  Volume FPLC: 100.7 kDa
[3]
  circulating form after injection (FPLC elution vs pre-injection sample): identical for pre-injection samples and for sera from injected mice
[4]
  Cell NSB (percent of cells with fluorescence higher than unstained cell): 14%

## (DOTA)Lys(PEG2K)-Cys(IR-783) [PN(783)3.0]
[1]
  Quantum Yield: 0.15
  Quant. Yield: 0.13
[2]
  Molecular Volume FPLC: 11.2 kDa
  Volume FPLC (diameter): 3.0 nm
  Volume FPLC: 11.2 kDa
[4]
  Cell NSB (percent of cells with fluorescence higher than unstained cell): 50%
[5]
  Serum half-life: 0.0233 h

## (DOTA)Lys(PEG20K)-Cys(IR-783) [PN(783)8.4]
[1]
  Quantum Yield: 0.17
  Quant. Yield: 0.16
[2]
  Molecular Volume FPLC: 262.5 kDa
  Volume FPLC (diameter): 8.4 nm
  Volume FPLC: 262.5 kDa
[4]
  Cell NSB (percent of cells with fluorescence higher than unstained cell): 14%
[5]
  Serum half-life: 0.293 h

## (^111In-DOTA)Lys(PEG30 kDa)-Cys(IR-783) [^111In-PN(783)10.0]
HT-29 tumor; HT29 tumor, 48 hours post injection, IV
  tumor concentration: 7.28±0.93 % ID/gm
HT-29 tumor; mouse, in vivo
  injected dose in the kidney: 0.44±0.02%
  injected dose in the liver: 4.71±0.38%
[6]
  Whole body radioactivity half-life: 7.8 h
  Whole body radioactivity, % of injected dose: 13.75±0.74%
  ^111In-PN(783)10 elimination half-life: 7.8 h
